Experimental findings from paper PMC9523049 are described below.

Broadly, the stoichiometry N is the number of molecules, sites or subunits per partner or assembly.

This assay addresses Mec1-Ddc2 heterodimer (yeast (endogenous in cultured yeast cells)) (UniProt P38111). As to the kind of experiment: cryo-EM structure; Mec1-Ddc2 complex endogenously purified from yeast cells treated with HU (HU-Dimer1, HU-Dimer2) or MMS (MMS-Dimer).

For the substance “Mec1-Ddc2 heterodimer, P38111 1-2368; Q04377 1-747”, the stoichiometry N was 2.
